Experimental data: patent publication US20260318927 (published 2026)

T1: MR-proADM (human)
T1 chain: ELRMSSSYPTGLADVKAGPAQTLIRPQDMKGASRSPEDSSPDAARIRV


Legend:
MR-proADM [1] = molecular target: T1, MR-proADM; test: SPR, antigen 1
MR-proADM [2] = molecular target: T1, MR-proADM; test: SPR, antigen 2
MR-proADM [3] = molecular target: T1, MR-proADM; test: SPR, 25C pH 7.4, Ab 2-a
MR-proADM [4] = molecular target: T1, MR-proADM; test: SPR, 25C pH 7.4, Ab 2-b
MR-proADM [5] = molecular target: T1, MR-proADM; test: SPR, 25C pH 7.4, Ab 2-c
MR-proADM [6] = molecular target: T1, MR-proADM; test: SPR, 25C pH 7.4, Ab 3-a
MR-proADM [7] = molecular target: T1, MR-proADM; test: SPR, 25C pH 7.4, Ab 3-c
MR-proADM [8] = molecular target: T1, MR-proADM; test: SPR, 25C pH 7.4, Ab 3-b
MR-proADM [9] = molecular target: T1, MR-proADM; test: SPR, 25C pH 7.4, Ab 3-d
MR-proADM [10] = molecular target: T1, MR-proADM; test: SPR, 25C pH 7.4

Row | Kd (MR-proADM [1]) | Kd (MR-proADM [2]) | Kd (MR-proADM [3]) | Kd (MR-proADM [4]) | Kd (MR-proADM [5]) | Kd (MR-proADM [6]) | Kd (MR-proADM [7]) | Kd (MR-proADM [8]) | Kd (MR-proADM [9]) | Kd (MR-proADM [10]) | Binder
1 | 2.49 nM | 2.57 nM | 2.97 nM | 3.02 nM | 2.82 nM |  |  |  |  |  | Ab2 (antibody, V domains shown) VH: QIQLVQSGPELRKPGETVKISCKASGYTFTDYSMHWVKQVPGKVLKWMGWINTETGEPTYVDDFKGRFAFSLETSASTAYLRINILKNEDAATYFCATNFDYWGQGTTLTVSS VL: not shown
2 | 13.9 nM | 17.4 nM |  |  |  | 14.8 nM | 18.8 nM | 17.1 nM | 20.1 nM |  | Ab3 (antibody, V domains shown) VH: EVQLQQSGPELVRPGASVKISCKASGYSFTDYFMHWMKQSHVKSLEWIGRLNPYNGATNYNQNFKDKATLTVDKSSSTAYMELHSLTSEDSAVYYCLSFTTPPEAYWGQGTLVTVSA VL: EIVMTQAAFSNPVTLGTSASISCRSNKSLLYSNGITYLFWYLQRPGQSPQLLIYQMSNLASGVPDRFSGSGSGTDFTLRISRVEAEDVGVYYCAQNLELPWTFGGGTKLEIK
3 | 6.47 nM | 101 nM |  |  |  |  |  |  |  | 247 nM | Ab5 (antibody, V domains shown) VH: EVQLQQSGPELVKPGASVKISCKASGYSFTDYYMHWVKQSHVKSLEWIGRINPYNGATKYNQNFKDKASLTVDKSSSTAYMELHSLTSEDSAVYYCTRRYDNDDGDYWGQGTTLRVSS VL: DIVMTQAAFSNPVTLGTSASISCRSSKSLLYSNGITYLYWYLQKPGQSPQLLIYQMSNLASGVPDRFSSSGSGTDFTLRISRVEAEDVGVYYCAQNLELPWTFGGGTKLEIK
